Test results published in patent US12123876B2, “Antibody binding to HEG1 and use of the antibody for detection and treatment of mesothelioma” (Kanagawa Prefectural Hospital Organization, priority 2016, dated 2024).

B1: HEG1 2 kb: HEG1 fragment, position 677 leucine to position 1387 phenylalanine of SEQ ID NO: 35 (protein, listed as Homo sapiens)
chain: SSGPPLPLPSVSQSHHLFSSILPSTRASVHLLKSTSDASTPWSSSPSPLPVSLTTSTSAPLSVSQTTLPQSSSTPVLPRARETPVTSFQTSTMTSFMTMLHSSQTADLKSQSTPHQEKVITESKSPSLVSLPTESTKAVTTNSPLPPSLTESSTEQTLPATSTNLAQMSPTFTTTILKTSQPLMTTPGTLSSTASLVTGPIAVQTTAGKQLSLTHPEILVPQISTEGGISTERNRVIVDATSGLIPLTSVPTSAKEMTTKLGVTAEYSPASRSLGTSPSPQTTVVSTAEDLAPKSATFAVQSSTQSPTTLSSSASVNSCAVNPCLHNGECVADNTSRGYHCRCPPSWQGDDCSVDVNECLSNPCPSTAMCNNTQGSFICKCPVGYQLEKGICNLVRTFVTEFKLKRTFLNTTVEKHSDLQEVENEITKTLNMCFSALPSYIRSTVHASRESNAVVISLQTTFSLASNVTLFDLADRMQKCVNSCKSSAEVCQLLGSQRRIFRAGSLCKRKSPECDKDTSICTDLDGVALCQCKSGYFQFNKMDHSCRACEDGYRLENETCMSCPFGLGGLNCGNPYQLITVVIAAAGGGLLLILGIALIVTCCRKNKNDISKLIFKSGDFQMSPYAEYPKNPRSQEWGREAIEMHENGSTKNLLQMTDVYYSPTSVRNPELERNGLYPAYTGLPGSRHSCIFPGQYNPSFISDESRRRDYF
B2: HEG1 1 kb: HEG1 fragment, position 992 valine to position 1387 phenylalanine of SEQ ID NO: 35 (protein, listed as Homo sapiens)
chain: VNSCAVNPCLHNGECVADNTSRGYHCRCPPSWQGDDCSVDVNECLSNPCPSTAMCNNTQGSFICKCPVGYQLEKGICNLVRTFVTEFKLKRTFLNTTVEKHSDLQEVENEITKTLNMCFSALPSYIRSTVHASRESNAVVISLQTTFSLASNVTLFDLADRMQKCVNSCKSSAEVCQLLGSQRRIFRAGSLCKRKSPECDKDTSICTDLDGVALCQCKSGYFQFNKMDHSCRACEDGYRLENETCMSCPFGLGGLNCGNPYQLITVVIAAAGGGLLLILGIALIVTCCRKNKNDISKLIFKSGDFQMSPYAEYPKNPRSQEWGREAIEMHENGSTKNLLQMTDVYYSPTSVRNPELERNGLYPAYTGLPGSRHSCIFPGQYNPSFISDESRRRDYF
B3: 7.6: HEG1 exon 7 fragment from amino acid No. 783 bonded to SLURPgpi; SEQ ID NO: 66 in FIG. 13 (protein)
chain: DLKSQSTPHQEKVITESKSPSLVSLPTESTKAVTTNSPLPPSLTESSTEQTLPATSTNLAQMSPTFTTTILKTSQPLMTTPGTLSSTASLVTGPIAVQTTAGKQLSLTHPEILVPQISTEGGISTERNRVIVDATSGLIPLTSVPTSAKEMTTKLGVTAEYSPASRSLGTSPSPQTTVVSTAEDLAPKSATFAVQSSTQSPTTLSSSASGSLKCYTCKEPMTSASCRTITRCKPEDTACMTTLVTVEAEYPFNQSPVVTRSCSSSCVATDPDSIGAAHLIFCCFRDLCNSELSRDGAPSLGSPGGLLLALALFLLLGVLL
B4: HEG1 3 kb: HEG1 fragment, position 285 leucine to position 1387 phenylalanine of SEQ ID NO: 35 (protein, listed as Homo sapiens)
chain: LSWLHFYRTAASSPLLDLSSSSESTEKLNNSTGLQSSSVSQTKTMHVATVFTDGGPRTLRSLTVSLGPVSKTEGFPKDSRIATTSSSVLLSPSAVESRRNSRVTGNPGDEEFIEPSTENEFGLTSLRWQNDSPTFGEHQLASSSEVQNGSPMSQTETVSRSVAPMRGGEITAHWLLTNSTTSADVTGSSASYPEGVNASVLTQFSDSTVQSGGSHTALGDRSYSESSSTSSSESLNSSAPRGERSIAGISYGQVRGTAIEQRTSSDHTDHTYLSSTFTKGERALLSITDNSSSSDIVESSTSYIKISNSSHSEYSSFFHAQTERSNISSYDGEYAQPSTESPVLHTSNLPSYTPTINMPNTSVVLDTDAEFVSDSSSSSSSSSSSSSSSSSSSSGPPLPLPSVSQSHHLFSSILPSTRASVHLLKSTSDASTPWSSSPSPLPVSLTTSTSAPLSVSQTTLPQSSSTPVLPRARETPVTSFQTSTMTSFMTMLHSSQTADLKSQSTPHQEKVITESKSPSLVSLPTESTKAVTTNSPLPPSLTESSTEQTLPATSTNLAQMSPTFTTTILKTSQPLMTTPGTLSSTASLVTGPIAVQTTAGKQLSLTHPEILVPQISTEGGISTERNRVIVDATSGLIPLTSVPTSAKEMTTKLGVTAEYSPASRSLGTSPSPQTTVVSTAEDLAPKSATFAVQSSTQSPTTLSSSASVNSCAVNPCLHNGECVADNTSRGYHCRCPPSWQGDDCSVDVNECLSNPCPSTAMCNNTQGSFICKCPVGYQLEKGICNLVRTFVTEFKLKRTFLNTTVEKHSDLQEVENEITKTLNMCFSALPSYIRSTVHASRESNAVVISLQTTFSLASNVTLFDLADRMQKCVNSCKSSAEVCQLLGSQRRIFRAGSLCKRKSPECDKDTSICTDLDGVALCQCKSGYFQFNKMDHSCRACEDGYRLENETCMSCPFGLGGLNCGNPYQLITVVIAAAGGGLLLILGIALIVTCCRKNKNDISKLIFKSGDFQMSPYAEYPKNPRSQEWGREAIEMHENGSTKNLLQMTDVYYSPTSVRNPELERNGLYPAYTGLPGSRHSCIFPGQYNPSFISDESRRRDYF
B5: HEG1 full length: full length human HEG1 protein, SEQ ID NO: 35, expressed in mesothelioma cell line (protein, listed as Homo sapiens)
chain: MASPRASRWPPPLLLLLLPLLLLPPAAPGTRDPPPSPARRALSLAPLAGAGLELQLERRPEREPPPTPPRERRGPATPGPSYRAPEPGAATQRGPSGRAPRGGSADAAWKHWPESNTEAHVENITFYQNQEDFSTVSSKEGVMVQTSGKSHAASDAPENLTLLAETADARGRSGSSSRTNFTILPVGYSLEIATALTSQSGNLASESLHLPSSSSEFDERIAAFQTKSGTASEMGTERAMGLSEEWTVHSQEATTSAWSPSFLPALEMGELTTPSRKRNSSGPDLSWLHFYRTAASSPLLDLSSSSESTEKLNNSTGLQSSSVSQTKTMHVATVFTDGGPRTLRSLTVSLGPVSKTEGFPKDSRIATTSSSVLLSPSAVESRRNSRVTGNPGDEEFIEPSTENEFGLTSLRWQNDSPTFGEHQLASSSEVQNGSPMSQTETVSRSVAPMRGGEITAHWLLTNSTTSADVTGSSASYPEGVNASVLTQFSDSTVQSGGSHTALGDRSYSESSSTSSSESLNSSAPRGERSIAGISYGQVRGTAIEQRTSSDHTDHTYLSSTFTKGERALLSITDNSSSSDIVESSTSYIKISNSSHSEYSSFFHAQTERSNISSYDGEYAQPSTESPVLHTSNLPSYTPTINMPNTSVVLDTDAEFVSDSSSSSSSSSSSSSSSSSSSSGPPLPLPSVSQSHHLFSSILPSTRASVHLLKSTSDASTPWSSSPSPLPVSLTTSTSAPLSVSQTTLPQSSSTPVLPRARETPVTSFQTSTMTSFMTMLHSSQTADLKSQSTPHQEKVITESKSPSLVSLPTESTKAVTTNSPLPPSLTESSTEQTLPATSTNLAQMSPTFTTTILKTSQPLMTTPGTLSSTASLVTGPIAVQTTAGKQLSLTHPEILVPQISTEGGISTERNRVIVDATSGLIPLTSVPTSAKEMTTKLGVTAEYSPASRSLGTSPSPQTTVVSTAEDLAPKSATFAVQSSTQSPTTLSSSASVNSCAVNPCLHNGECVADNTSRGYHCRCPPSWQGDDCSVDVNECLSNPCPSTAMCNNTQGSFICKCPVGYQLEKGICNLVRTFVTEFKLKRTFLNTTVEKHSDLQEVENEITKTLNMCFSALPSYIRSTVHASRESNAVVISLQTTFSLASNVTLFDLADRMQKCVNSCKSSAEVCQLLGSQRRIFRAGSLCKRKSPECDKDTSICTDLDGVALCQCKSGYFQFNKMDHSCRACEDGYRLENETCMSCPFGLGGLNCGNPYQLITVVIAAAGGGLLLILGIALIVTCCRKNKNDISKLIFKSGDFQMSPYAEYPKNPRSQEWGREAIEMHENGSTKNLLQMTDVYYSPTSVRNPELERNGLYPAYTGLPGSRHSCIFPGQYNPSFISDESRRRDYF

Test system: SKM9-2 antibody
Assay: Western blot reactivity of human HEG1 fragments expressed in ACC-MESO-1 with SKM9-2 antibody
Type: binding, mouse
Conditions: Western blot of cell lysate
Experimental: In this Example, the mesothelioma cell line ACC-MESO-1 was allowed to express a human HEG1 fragment with the endogenous HEG1 of ACC-MESO-1 knocked down, and the reactivity with the SKM9-2 antibody was examined. Subsequently, the reactivity with the antibody was tested for the epitope region through alanine scanning, and key amino acids for binding to the antibody were determined.
Gene transfer was performed with HEG1 siRNA (H9106) (SEQ ID NOs: 40, 41) and human HEG1 for the mesothelioma cell line ACC-MESO-1, and the reactivity of the SKM9-2 was examined through Western blot analysis. A full length protein (HEG1 full length) or a fragment (HEG1 3 kb, HEG1 2 kb, or HEG1 1 kb) of the human HEG1 was used. The full length human HEG1 protein, a protein having the amino acid sequence set forth in SEQ ID NO: 35, was obtained through inserting a base sequence set forth in SEQ ID NO: 34 into pFLAG-CMV1 (Sigma-Aldrich Japan K.K.) to obtain a plasmid, transforming the plasmid, and allowing the mesothelioma cell line to express the plasmid. Fragment HEG1 3 kb was obtained through inserting a fragment corresponding to a sequence from position 285, leucine, to position 1387, phenylalanine, of SEQ ID NO: 35 into pFLAG-CMV1 (Sigma-Aldrich Japan K.K.) in an in-frame manner, and allowing the mesothelioma cell line to express the resultant. HEG1 2 kb and HEG1 1 kb were obtained through allowing the mesothelioma cell line to express products similarly obtained from a fragment corresponding to a sequence from position 677, leucine, to position 1387, phenylalanine, of SEQ ID NO: 35 and a fragment corresponding to a sequence from position 992, valine, to position 1387, phenylalanine, of SEQ ID NO: 35, respectively. Each cell lysate was analyzed through Western blot with the SKM9-2 antibody.
Further, the region in exon 7 of HEG1 was analyzed in detail. The amino acid sequence of a part of exon 7 of HEG1 was connected to the N-terminal side of a protein obtained by connecting a GPI anchor signal to human SLURP1 (SEQ ID NO: 42; hereinafter referred to as “SLURPgpi”) to produce a fusion protein, and the reactivity of the SKM9-2 was examined through Western blot analysis with the fusion protein. A signal sequence (SEQ ID NO: 43) was added to the N-terminal of the fusion protein before expression.
Used fusion proteins of a partial sequence of exon 7 of HEG1 and SLURPgpi were as follows: • a fragment obtained by bonding a fragment from amino acid No. 783, aspartic acid, to amino acid No. 991, serine, to SLURPgpi (7.6); • a fragment obtained by bonding a fragment from amino acid No. 832, glutamine, to amino acid No. 991, serine, to SLURPgpi (7.7); • a fragment obtained by bonding a fragment from amino acid No. 886, glutamine, to amino acid No. 991, serine, to SLURPgpi (7.8); • a fragment obtained by bonding a fragment from amino acid No. 941, alanine, to amino acid No. 991, serine, to SLURPgpi (7.9); • a fragment obtained by bonding SEQ ID NO: 44 to SLURPgpi (7.61); • a fragment obtained by bonding SEQ ID NO: 45 to SLURPgpi (7.62); • a fragment obtained by bonding SEQ ID NO: 46 to SLURPgpi (7.63); • a fragment obtained by bonding SEQ ID NO: 47 to SLURPgpi (7.64); • a fragment obtained by bonding SEQ ID NO: 48 to SLURPgpi (7.623); • a fragment obtained by bonding SEQ ID NO: 49 to SLURPgpi (7.6231); • a fragment obtained by bonding SEQ ID NO: 50 to SLURPgpi (7.6232); • a fragment obtained by bonding SEQ ID NO: 51 to SLURPgpi (7.6241); and • a fragment obtained by bonding SEQ ID NO: 52 to SLURPgpi (7.6242).

| Molecule | Binding to SKM9-2 antibody (positive/negative) |
| --- | --- |
| B1 | positive |
| B2 | negative |
| B3 | positive |
| B4 | positive |
| B5 | positive |

Same assay, conditions: Western blot of cell lysate; listed as fragment 7.6

| Molecule | Binding to SKM9-2 antibody (positive/negative) |
| --- | --- |
| B3 | positive signal |
